Measured values from PMC9482650, “Quantitative fragmentomics allow affinity mapping of interactomes” (Nature Communications, 2022).
Substitutions are numbered along the chain they refer to.

T1: ARHGAP21, Q5T5U3
T1 sequence (Q5T5U3 45-169, limits assumed, looked up): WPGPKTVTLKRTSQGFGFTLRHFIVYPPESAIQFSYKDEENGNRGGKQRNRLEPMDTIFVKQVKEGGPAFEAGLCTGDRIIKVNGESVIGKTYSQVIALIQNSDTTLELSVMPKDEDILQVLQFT

T2: HTRA3, P83110
T2 sequence (P83110 354-453, limits assumed, looked up): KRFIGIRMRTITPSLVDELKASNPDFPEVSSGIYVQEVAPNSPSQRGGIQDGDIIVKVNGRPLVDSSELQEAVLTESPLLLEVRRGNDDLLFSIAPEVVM

T3: PDZRN3_1, Q9UPQ7
T3 sequence (Q9UPQ7 244-349, limits assumed, looked up): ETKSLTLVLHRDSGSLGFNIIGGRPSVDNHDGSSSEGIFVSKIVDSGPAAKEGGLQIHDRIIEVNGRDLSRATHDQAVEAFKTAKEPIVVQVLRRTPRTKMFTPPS

T4: MPP7, Q5T2T1
T4 sequence (Q5T2T1 134-230, limits assumed, looked up): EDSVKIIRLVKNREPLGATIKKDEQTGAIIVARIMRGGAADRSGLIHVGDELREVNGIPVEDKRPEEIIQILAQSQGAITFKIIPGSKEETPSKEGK

T5: LIN7B, Q9HAP6
T5 sequence (Q9HAP6 88-185, limits assumed, looked up): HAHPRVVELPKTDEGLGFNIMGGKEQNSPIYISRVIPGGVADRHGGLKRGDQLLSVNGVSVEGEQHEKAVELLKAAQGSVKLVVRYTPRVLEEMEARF

T6: LIN7C, Q9NUP9
T6 sequence (Q9NUP9 88-185, limits assumed, looked up): T5 sequence (Q9HAP6 88-185, limits assumed, looked up) with A2S, D13E, V35I, V40I, Q65H, S79K, R89K, A96S

T7: DLG3_2, Q92796
T7 sequence (Q92796 221-321, limits assumed, looked up): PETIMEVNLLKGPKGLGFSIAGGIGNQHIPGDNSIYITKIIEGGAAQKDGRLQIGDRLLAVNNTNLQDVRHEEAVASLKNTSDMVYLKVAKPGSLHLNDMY

T8: GRIP1_3, Q9Y3R0
T8 sequence (Q9Y3R0 247-346, limits assumed, looked up): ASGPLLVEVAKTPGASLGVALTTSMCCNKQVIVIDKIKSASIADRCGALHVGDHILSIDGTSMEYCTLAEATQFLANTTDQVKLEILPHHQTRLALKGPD

T9: DFNB31_2, Q9P202
T9 sequence (Q9P202 274-371, limits assumed, looked up): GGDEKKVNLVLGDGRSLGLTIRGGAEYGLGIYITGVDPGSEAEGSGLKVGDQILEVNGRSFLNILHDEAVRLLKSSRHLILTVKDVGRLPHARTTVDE

T10: GRIP1_4, Q9Y3R0
T10 sequence (Q9Y3R0 467-571, limits assumed, looked up): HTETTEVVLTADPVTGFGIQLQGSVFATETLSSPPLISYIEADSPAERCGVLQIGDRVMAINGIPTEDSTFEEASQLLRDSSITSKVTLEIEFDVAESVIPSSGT

T11: APBA1_1, Q02410
T11 sequence (Q02410 651-752, limits assumed, looked up): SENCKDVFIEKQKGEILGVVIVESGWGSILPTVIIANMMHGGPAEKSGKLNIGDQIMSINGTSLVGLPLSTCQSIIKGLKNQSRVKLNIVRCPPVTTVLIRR


molecular target: FRMPD4, Q14CM0; test: holdup assay; set-up: key: below the threshold = too weak to quantify, mostly under pKd 3.1 to 4; conditions: plain residues with an end cap or a label only (N-terminal biotin on a linker: ado-ado)
Sequence (Q14CM0 67-160): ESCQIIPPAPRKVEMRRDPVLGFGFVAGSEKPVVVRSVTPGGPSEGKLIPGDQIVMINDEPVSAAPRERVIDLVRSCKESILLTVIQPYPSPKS

| pKd | Binder |
| --- | --- |
| below the threshold | QGPVETESVV [SLC45A4, Q5BKX6] |

molecular target: NHERF4_2, Q86UT5; test: holdup assay; set-up: key: below the threshold = too weak to quantify, mostly under pKd 3.1 to 4; conditions: plain residues with an end cap or a label only (N-terminal biotin on a linker: ado-ado)
Sequence (Q86UT5 220-308): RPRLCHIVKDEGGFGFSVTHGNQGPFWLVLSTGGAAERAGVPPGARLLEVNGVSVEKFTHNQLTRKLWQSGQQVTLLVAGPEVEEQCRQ

| pKd | Binder |
| --- | --- |
| below the threshold | QGPVETESVV [SLC45A4, Q5BKX6] |

molecular target: T1, ARHGAP21, Q5T5U3; test: holdup assay; set-up: key: below the threshold = too weak to quantify, mostly under pKd 3.1 to 4; conditions: plain residues with an end cap or a label only (N-terminal biotin on a linker: ado-ado)

| pKd | Binder |
| --- | --- |
| 4.14 | QGPVETESVV [SLC45A4, Q5BKX6] |

molecular target: T2, HTRA3, P83110; test: holdup assay; set-up: key: below the threshold = too weak to quantify, mostly under pKd 3.1 to 4; conditions: plain residues with an end cap or a label only (N-terminal biotin on a linker: ado-ado)

| pKd | Binder |
| --- | --- |
| below the threshold | QGPVETESVV [SLC45A4, Q5BKX6] |

molecular target: T3, PDZRN3_1, Q9UPQ7; test: holdup assay; set-up: key: below the threshold = too weak to quantify, mostly under pKd 3.1 to 4; conditions: plain residues with an end cap or a label only (N-terminal biotin on a linker: ado-ado)

| pKd | Binder |
| --- | --- |
| 3.72 | QGPVETESVV [SLC45A4, Q5BKX6] |

molecular target: MAGI2_4, Q86UL8; test: holdup assay; set-up: key: below the threshold = too weak to quantify, mostly under pKd 3.1 to 4; conditions: plain residues with an end cap or a label only (N-terminal biotin on a linker: ado-ado)
Sequence (Q86UL8 772-865): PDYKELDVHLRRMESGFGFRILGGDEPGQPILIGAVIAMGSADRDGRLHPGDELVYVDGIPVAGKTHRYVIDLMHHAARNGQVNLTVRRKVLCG

| pKd | Binder |
| --- | --- |
| 3.76 | QGPVETESVV [SLC45A4, Q5BKX6] |

molecular target: GORASP2, Q9H8Y8; test: holdup assay; set-up: key: below the threshold = too weak to quantify, mostly under pKd 3.1 to 4; conditions: plain residues with an end cap or a label only (N-terminal biotin on a linker: ado-ado)

| pKd | Binder |
| --- | --- |
| 3.53 | QGPVETESVV [SLC45A4, Q5BKX6] |

molecular target: T4, MPP7, Q5T2T1; test: holdup assay; set-up: key: below the threshold = too weak to quantify, mostly under pKd 3.1 to 4; conditions: plain residues with an end cap or a label only (N-terminal biotin on a linker: ado-ado)

| pKd | Binder |
| --- | --- |
| below the threshold | QGPVETESVV [SLC45A4, Q5BKX6] |

molecular target: T5, LIN7B, Q9HAP6; test: holdup assay; set-up: key: below the threshold = too weak to quantify, mostly under pKd 3.1 to 4; conditions: plain residues with an end cap or a label only (N-terminal biotin on a linker: ado-ado)

| pKd | Binder |
| --- | --- |
| below the threshold | QGPVETESVV [SLC45A4, Q5BKX6] |

molecular target: MAGI2_3, Q86UL8; test: holdup assay; set-up: key: below the threshold = too weak to quantify, mostly under pKd 3.1 to 4; conditions: plain residues with an end cap or a label only (N-terminal biotin on a linker: ado-ado)
Sequence (Q86UL8 600-682): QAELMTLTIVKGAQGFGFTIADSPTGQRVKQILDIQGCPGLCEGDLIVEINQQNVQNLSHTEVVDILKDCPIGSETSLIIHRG

| pKd | Binder |
| --- | --- |
| 3.65 | QGPVETESVV [SLC45A4, Q5BKX6] |

molecular target: GIPC2, Q8TF65; test: holdup assay; set-up: key: below the threshold = too weak to quantify, mostly under pKd 3.1 to 4; conditions: plain residues with an end cap or a label only (N-terminal biotin on a linker: ado-ado)
Sequence (Q8TF65 112-203): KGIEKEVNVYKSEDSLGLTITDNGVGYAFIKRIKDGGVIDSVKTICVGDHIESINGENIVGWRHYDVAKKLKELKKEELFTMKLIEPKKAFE

| pKd | Binder |
| --- | --- |
| 4.37 | QGPVETESVV [SLC45A4, Q5BKX6] |

molecular target: GRID2IP_1, A4D2P6; test: holdup assay; set-up: key: below the threshold = too weak to quantify, mostly under pKd 3.1 to 4; conditions: plain residues with an end cap or a label only (N-terminal biotin on a linker: ado-ado)
Sequence (A4D2P6 1-87): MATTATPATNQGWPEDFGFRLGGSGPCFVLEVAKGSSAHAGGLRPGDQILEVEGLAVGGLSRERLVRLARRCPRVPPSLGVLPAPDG

| pKd | Binder |
| --- | --- |
| below the threshold | QGPVETESVV [SLC45A4, Q5BKX6] |

molecular target: T6, LIN7C, Q9NUP9; test: holdup assay; set-up: key: below the threshold = too weak to quantify, mostly under pKd 3.1 to 4; conditions: plain residues with an end cap or a label only (N-terminal biotin on a linker: ado-ado)

| pKd | Binder |
| --- | --- |
| below the threshold | QGPVETESVV [SLC45A4, Q5BKX6] |

molecular target: GORASP1, Q9BQQ3; test: holdup assay; set-up: key: below the threshold = too weak to quantify, mostly under pKd 3.1 to 4; conditions: plain residues with an end cap or a label only (N-terminal biotin on a linker: ado-ado)
Sequence (Q9BQQ3 1-208): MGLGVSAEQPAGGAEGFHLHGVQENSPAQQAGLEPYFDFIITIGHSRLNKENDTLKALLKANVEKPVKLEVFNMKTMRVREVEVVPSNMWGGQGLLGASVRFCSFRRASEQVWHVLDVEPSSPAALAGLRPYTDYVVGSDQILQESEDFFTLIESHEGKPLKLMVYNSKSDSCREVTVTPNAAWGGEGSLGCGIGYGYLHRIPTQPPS

| pKd | Binder |
| --- | --- |
| 3.65 | QGPVETESVV [SLC45A4, Q5BKX6] |

molecular target: LNX1_1, Q8TBB1; test: holdup assay; set-up: key: below the threshold = too weak to quantify, mostly under pKd 3.1 to 4; conditions: plain residues with an end cap or a label only (N-terminal biotin on a linker: ado-ado)
Sequence (Q8TBB1 261-371): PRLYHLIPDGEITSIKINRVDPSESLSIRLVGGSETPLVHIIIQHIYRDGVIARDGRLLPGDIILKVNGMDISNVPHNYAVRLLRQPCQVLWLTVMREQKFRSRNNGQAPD

| pKd | Binder |
| --- | --- |
| 3.95 | QGPVETESVV [SLC45A4, Q5BKX6] |

molecular target: Inadl_2, Q8NI35; test: holdup assay; set-up: key: below the threshold = too weak to quantify, mostly under pKd 3.1 to 4; conditions: plain residues with an end cap or a label only (N-terminal biotin on a linker: ado-ado)
Sequence (Q8NI35 238-335): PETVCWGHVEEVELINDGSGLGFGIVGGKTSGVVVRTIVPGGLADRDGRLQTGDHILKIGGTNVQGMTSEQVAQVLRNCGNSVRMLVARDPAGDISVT

| pKd | Binder |
| --- | --- |
| below the threshold | QGPVETESVV [SLC45A4, Q5BKX6] |

molecular target: T7, DLG3_2, Q92796; test: holdup assay; set-up: key: below the threshold = too weak to quantify, mostly under pKd 3.1 to 4; conditions: plain residues with an end cap or a label only (N-terminal biotin on a linker: ado-ado)

| pKd | Binder |
| --- | --- |
| 4.47 | QGPVETESVV [SLC45A4, Q5BKX6] |

molecular target: CASK, O14936; test: holdup assay; set-up: key: below the threshold = too weak to quantify, mostly under pKd 3.1 to 4; conditions: plain residues with an end cap or a label only (N-terminal biotin on a linker: ado-ado)
Sequence (O14936 487-570): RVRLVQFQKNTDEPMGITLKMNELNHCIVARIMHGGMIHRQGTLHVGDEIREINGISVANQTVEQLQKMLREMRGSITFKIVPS

| pKd | Binder |
| --- | --- |
| below the threshold | QGPVETESVV [SLC45A4, Q5BKX6] |

molecular target: T8, GRIP1_3, Q9Y3R0; test: holdup assay; set-up: key: below the threshold = too weak to quantify, mostly under pKd 3.1 to 4; conditions: plain residues with an end cap or a label only (N-terminal biotin on a linker: ado-ado)

| pKd | Binder |
| --- | --- |
| below the threshold | QGPVETESVV [SLC45A4, Q5BKX6] |

molecular target: T9, DFNB31_2, Q9P202; test: holdup assay; set-up: key: below the threshold = too weak to quantify, mostly under pKd 3.1 to 4; conditions: plain residues with an end cap or a label only (N-terminal biotin on a linker: ado-ado)

| pKd | Binder |
| --- | --- |
| below the threshold | QGPVETESVV [SLC45A4, Q5BKX6] |

molecular target: T10, GRIP1_4, Q9Y3R0; test: holdup assay; set-up: key: below the threshold = too weak to quantify, mostly under pKd 3.1 to 4; conditions: plain residues with an end cap or a label only (N-terminal biotin on a linker: ado-ado)

| pKd | Binder |
| --- | --- |
| below the threshold | QGPVETESVV [SLC45A4, Q5BKX6] |

molecular target: DLG4_1, P78352; test: holdup assay; set-up: key: below the threshold = too weak to quantify, mostly under pKd 3.1 to 4; conditions: plain residues with an end cap or a label only (N-terminal biotin on a linker: ado-ado)
Sequence (P78352 62-152): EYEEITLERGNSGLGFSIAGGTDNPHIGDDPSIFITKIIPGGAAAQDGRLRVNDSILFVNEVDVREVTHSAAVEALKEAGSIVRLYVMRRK

| pKd | Binder |
| --- | --- |
| 4.33 | QGPVETESVV [SLC45A4, Q5BKX6] |

molecular target: GRIP2_5, Q9C0E4; test: holdup assay; set-up: key: below the threshold = too weak to quantify, mostly under pKd 3.1 to 4; conditions: plain residues with an end cap or a label only (N-terminal biotin on a linker: ado-ado)
Sequence (Q9C0E4 544-642): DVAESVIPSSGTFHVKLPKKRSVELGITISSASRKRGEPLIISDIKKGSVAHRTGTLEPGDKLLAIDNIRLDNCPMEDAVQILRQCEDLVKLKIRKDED

| pKd | Binder |
| --- | --- |
| below the threshold | QGPVETESVV [SLC45A4, Q5BKX6] |

molecular target: FRMPD3, Q5JV73; test: holdup assay; set-up: key: below the threshold = too weak to quantify, mostly under pKd 3.1 to 4; conditions: plain residues with an end cap or a label only (N-terminal biotin on a linker: ado-ado)
Sequence (Q5JV73 12-100): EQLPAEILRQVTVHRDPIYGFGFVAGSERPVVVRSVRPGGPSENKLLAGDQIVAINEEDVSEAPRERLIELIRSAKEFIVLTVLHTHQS

| pKd | Binder |
| --- | --- |
| 3.5 | QGPVETESVV [SLC45A4, Q5BKX6] |

molecular target: T11, APBA1_1, Q02410; test: holdup assay; set-up: key: below the threshold = too weak to quantify, mostly under pKd 3.1 to 4; conditions: plain residues with an end cap or a label only (N-terminal biotin on a linker: ado-ado)

| pKd | Binder |
| --- | --- |
| below the threshold | QGPVETESVV [SLC45A4, Q5BKX6] |
